Binding result and Kd data for 6 molecules are collected here from publication PMC9798703.

Holding throughout (experiment): fluorescence anisotropy
For orientation: Fluorescence polarisation rises when a labelled molecule tumbles more slowly, as on binding a larger partner.

In data set [1] the target is T1, ERα DBD-Ext (Homo sapiens, UniProt P03372).
Data set [2] addresses T1, ERα DBD-Ext. This is another data set of the same source.
Data set [3] concerns the target T1, ERα DBD-Ext. The source holds these as a separate data set.
Data set [4] concerns the target T1, ERα DBD-Ext. This is another data set of the same source.

Read-outs that look alike come from different tables or passages of the source.

B1: GREB1 (structured_RNA)
RNA: GGGAUGCCGAAGAGUUGAUGUCAAUCUUUUUUUCCUAAGAAAAAAAGUCCGCGAGUAUUCC
As for B1, the binding result in data set [1] is “binds”.

B2: rERE duplex (dsRNA)
RNA 1: CAGGUCAGAGUGACCUGAUU
RNA 2: AAUCAGGUCACUCUGACCUG
For orientation: Kd means the equilibrium constant for the complex coming apart. Higher therefore signals lower affinity. For the molecule B2, in data set [2], binding was characterised by a dissociation constant (Kd) of 1100 nM. This lies in the single-digit micromolar range.

B3: rERE loop rescue (structured_RNA)
RNA: UCAGGUCACUCUGACCUGGCUUCAGGUCAGAGUGACCUGA
As to B3, the binding result in data set [3] is reported as “binds”.

B4: ssRNA (env8) (ssRNA)
RNA: AUACAACAUACAACAUACAACAUACAACAUACAAC
Consider B4, for which, in data set [4], the equilibrium dissociation constant (Kd) is around 1100 nM.

B5: rERE (structured_RNA)
RNA: CAGGUCAGAGUGACCUGAUUCGUCAGGUCACUCUGACCUG
B5 returned a dissociation constant Kd in data set [2] of 130 ± 20 nM.

B6: TFF1 (structured_RNA)
RNA: GGGAUCUGCCUGCAUCCUGACGCGGUGCCGUCCC
Turning to B6, the binding result in data set [1] is “binds”.
